Laboratory results published in the nanobody polyreactivity screen of Harvey et al. (2022).

Assay: yeast display, Sf9 membrane polyspecificity reagent, FACS + sequencing; frameworks hold sequencing errors
Procedure, shortened: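 Using colony PCR, genes from sorted yeast display clones were amplified, then sequenced on MiSeq at 2 × 250 and filtered by CDR length. The clones had been stained with 10% biotinylated, detergent-solubilized Sf9 membrane reagent for 1 hour at 4 °C and sorted by FACS into low and high (top ~1%) gates on anti-HA and streptavidin fluorescence. Polyreactivity labels come from the gate of origin.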

Sequence	polyreactivity (PSR sort gate)
QLQLVESVGGLVHAGGSLRLSCAASGSTFVLYAMGWYRQAPGKERELVATITTSGARTHYADSVKGRFTISRDNAKNTVYLQMNRLKPEDTAVYNCAAESYWTGDDYWGQGTQVTVSS	low polyreactivity
QLQLVESVGVLVQAGGSLRLSCAASGFIFDGYAMGWYRQAPGKERELVAAIDSGGDRTYYADSVKGRFTISRDNAKNTVYLQMNSLKPEDTAVYYCARTFRTYAPRPYQGDYWGQGTQVTVSS	low polyreactivity
QLQLVETGGGLVQAGASLRLSCAASGSIFVPYAMGWYIQAPGKERELVAAISRGGDTNYADSVKGRFTISRDNAKNTVYLQMISLKPEDTAVYYCNRARHLYSRWHGGYYYWGQGTQVNVSS	low polyreactivity
QLQLVKSWGGLVQAGGSLRLSSAASGLTFELYDMGWYRQAPGKERELVAAIDWSATRTYYADSVKGRFTISRDNAKNTVYLQMNSLKPEDTEVYYCNAEAVYEYWIYDYWGQGTQVTVSS	high polyreactivity
QRQLVESGGGLVQAGGSLRLSCAASGFIFDSNAMGRYRQEPGKERELVAAFAARGGSTYYADSVKGRFTISRDYAKHTLYLQMNSLKPEETAVYNCNAVYIVGGYWGQGTQVTVSS	high polyreactivity
QRQLVESGGGLVQAGGSLRLSCAASGIIFQGYAMGWYRQAPGKERELVAAISHHADSTYADSVKGRFTISRDNAKNPVYLQMNSLKPEDTAVYYCNADTPVRSDYWGQGTQVTVSS	low polyreactivity
QVEHVESGGGLVQAGGILRLSCAASGSTFYGYAMGWYRQARGKERELVAAITSSGGSTYYADSVKGRFTISRDNAKNSVYLQMNSLKPEDTADYYCNAKRAPWGTLYNYWGQGSQVTVSS	high polyreactivity
QVEIVESGGGLVQAGGSLRLSCAASGSIFRWNAMGWYRQAPGKERELVAAISKRGTNTYYADSVKCRFTISRDNAKNTVYLQMNSLKPEDTAVYYCNAQGHRQNGLGDYWGQGTQVTVSS	high polyreactivity
QVELQVSGGGLVRAGGSLRLSCAASGNIFDADIMGWYRQAPGKERELVASITGGGSTSYAESAKGRFTISRDNAKNAVYLQMNSLKPEDTAVYYCNAYFIYEGGWYYKAQYDYWGQGTQVTVSS	low polyreactivity
QVELVESGGGLVQAGGSLRLICAASGFTYTWNAMGWYRQAPGKERELVAGITRGGSTNYADSVKGRFTISRDNAKNTVYLQINSLKPEDTAVYYCNVSFYFHHAGYDFWGQGTQVTVSS	low polyreactivity
QVELVESGGGLVQAGGSLRLSCAASGCIFTFYAMGWYRTAPGKARELVAAISSSGTSTYYADSVKGRFTISRDNAKNTVYLQMNSLKPEDTAVYYCAAGTAYSRYGYWGQGTQVTVSS	high polyreactivity
QVELVESGGGLVQAGGSLRLSCAASGFTFHSNVMGWYRQAPGKERELVAAISNGGGSTYYADSVKGRFTISRDNAKNTVYLQMNSLKPEDTAVYYCDKRTYPGFGYWGQGTQVTVSS	high polyreactivity
QVELVESGGGLVQAGGSLRLSCAASGFTFVSYAMGWYRQAPGKEREFVATISKRGGSTYYADSVKGRFTISRDNAKNTVYLQMNSLKPEDTAVYYCAVRYPYYSYRAKLGYCGQGTQVTVSS	high polyreactivity
QVELVESGGGLVQAGGSLRLSCAASGSTFDPNAMGWYRQAPGKERELVASITSRGGSTYYADSVKGRFTISRDIAKNTVYLQMNSLKPEDTADYYCAAVGGATYSWNGYSWYPWHNYWGQGTQVTVSS	low polyreactivity
QVELVESGGGLVQAGGSLRLSCAASGSTFYRYAMGWYRQAPGKEREFVARIDWSDGSTNYADSVKGRFTISRDTAKNTVYLQMNSLKPEDTAVYYCAADTYYDTYDGEYEYWGQGTQVTVSS	low polyreactivity
QVELVESGGGVVQAGGSLRLSCAASGYIFRAYAMGWYRQAPGKERELVAAISSRGGSKYYADSVKGRFTSSRDNAKNTVYLQMNSLIPEDTAVYYCAAAYRKPYIGYGYWGQGTQGTVSS	high polyreactivity
QVELVYSGGGLVQAGGSLRLSCPASGSTFWYYAMGWSRQPPGKERELVAAINSGGSTFYADSVKGRFTISRDNAKNTVYLQMNSLKPEDTAVYYCAKRSYDYRRYYWGQGTQVTVSS	high polyreactivity
QVHHVESGGVLVQAGRILRVSCAASGSTFPRNAMGWYRHAPGKERELDAAITSRGGRTYYADSVKGRFTISRDNAKNTVYLQMISLKPEDTAVYYCARVGGIGSGRTGYGYWGQGSQVTVSS	high polyreactivity
QVHLAESGGGLVQAGGSLRLSCASSGIIFYFYAMGWYRQAPGKERELVAAISGTGGRTYYADSVKGRFTISRDNAKNTVYLQMNSLKPEDTAVYYCNADDTPVPSIRFDYWGQGTQVTVSS	low polyreactivity
QVHLEESGGGLVQAGGSLRLSCAASGFIFNAYAMGWYRQAPGKERELVAAISSSGGRTYYADSVKGRFTISRDNAKNTVYLQMNSLKPEVTAVYYCNTYRYYQYYRSMDYWGQGTQVTVSS	high polyreactivity
QVHLEESGGGLVQAGGSLRLSCAASGRIPFYAMGWYRQAPGKEREFVAAIRFSGGSTFYADSVKGRFTISRDNAKNTVYLQMNSLTPEDTAVYYCAAYLYYPFYWWRDYCGQGTQVTVSS	high polyreactivity
QVHLLESGGALVQAGGRLRLSCAASGRIFKTYAMGWYRQAPGKELEFVAAITASGGRTYYADSVKGRFTISRDNAKNTVYLQMNSLIPEDTAGYYCNARLVYYSYEEMDYWGQGTQVTVSS	low polyreactivity

Sequence	polyreactivity (PSR sort gate)
QVHLQESGAGLEQAGGSLRLSCAASGYISDIGTMGCYRQAPGKEREFVATIVVGSTTNYADSVKGRFTISRDNAKNTLYLQPESGRYRGVLLRGWLLAVGKFTYWGQGTQETVSS	low polyreactivity
QVHLQESGGGLVQAGGSLRLSCAASGYITLAQTIGWYRQAPGQEREFVASIALGSSTYYTDSVKGSFTISRDNAKTTVYLQMNSLKPEDTAVYYCAARVGSSYAHDYWGQGTQVTVSS	low polyreactivity
QVHLQGSGGGLVQAGGSLRLSCAASGYIFQNDPMGWNLQAPGKERELVAGIDNGTSTNYADSVNGRFTISRDNAKNTVYLQMNSLKPEDTAVYYCSAAGQADDTLGYWGQGTEVTVSS	low polyreactivity
QVHLVDSGGGLVQAGGSLGLNCAASGRTLRYNAMGWYRQATGIERELVAAINWNGGSTYYADSVKGRFTISRETAMYTVYLQMNRLKPEDTAVYFCNDDFYHRYDWGQGTQVTVSS	high polyreactivity
QVHLVDSGGGLVQAGGSLRLSCAASGFTYYAMGWYRQAPGKERELVAAITRSGGSTYYADSVKGRFTISRDNAKNSVYLQMKSLKPEDTAVYYCAASGKALKYTARYGSWGQGTQVNVSS	high polyreactivity
QVHLVDSGGGLVQAGGSLRLSCAASGRTFQVYTMGWSRQAPGKERELVAAITWNGGRTRYADSVKGRFTISRDNAKNTVYLQMTSLKPEDTAVYYCNAGNWITARAGFNDWGQGTQVTVSS	high polyreactivity
QVHLVDSGGGLVQAGGSLRLSCAASGRTSIRYAMAWYRQAPGKERELVAAITYAAGSTYYADSVTGRFTISRDNAKNTVYLQMNSLKPEDTAVYYCNARVYYHYDFWGQGTQVTVSS	high polyreactivity
QVHLVDSGGGLVQAGGSLRLSCAASGSTSGTNAMGWYRQAPGKERELVAGISYRGGSTYYADSVKGRFTISRDNAKNTVYLQMNSLKPEDTAVYYCAARKLKYRREYWGQGTQVTVSS	high polyreactivity
QVHLVDSGGGLVQAGGSLRLSCSASGLIFSGYAMRWYRQAPGKERELVAAITRRGSRTYYADSVTGRFTISRDKAKNTVYLQMNSLKPEDTAVYYCAADRFQGRDDYWGQGTQVTVSS	high polyreactivity
QVHLVESAAGFVQAGGSLRLSGAASGFILWYYTMGWYRQAPGKERELVAVIDWSGDSTYADSVKGRFTISLDNAKNSVYLQMNSLIPVDTAVYYWNADYFVVWARLEFNYWGQGTQVTVSS	low polyreactivity
QVHLVESAGGLVQAGGSLRLRCDASGRTFVLYTMGWYRQAPGKERELVAAIYGSGGRTYYADSVKGRLTISRDNAKNTVYLQMNSLKPEDTAVYYCAAYCQGLPLYGYWGQGTQVTVSS	high polyreactivity
QVHLVESCGGLVQAGGSLRLSCAASGITFWNYAMGRYRQAPGKETELVAAISYSGGSTYYADSVKGRFTISRDNAKNTFYLQMNSLKPEDTGVYYCAATLPTNWVRYDYWGQGTQVTVSS	low polyreactivity
QVHLVESGGCLVQAGGSLRLSCAASGRIYRYAMGWYRQAPGKERELVAVITRRGDGTYYADSVKGRFTISRDNAKNTVYLQMNSLKPEDTAVYYCNADQSYKRPWPYDYWGQGTQVTVSS	high polyreactivity
QVHLVESGGGIVQAGGSLRLSCAASGSIFGKNVMGWYRHAPGKERQLVAAITSGASTYYADSVKGRFTISRDNAKNTVYLQMNSLKPEDTPVYYCAARRWRKYYSGYNYWGQGTQVTVSS	high polyreactivity
QVHLVESGGGLDQAGGSLRLSCAASGSISLIYAMGWYRQAPGKERELVAAITSSGGSTYYADSVKGRFTISRDNAKNTVYLQMNSLKREDTAVYYCAAERWTRRHYSGNDYWGQGTQVTVSS	low polyreactivity
QVHLVESGGGLDQAGGSLRLSCAASGSTDGPYARGWSRQATGKERELVATINSSGSTNYADSLKGRFTISRDNAKNTVYLQMHSLKTEDTAVYYSASLHSYYWNDYWGQGTQVTVSS	low polyreactivity
QVHLVESGGGLDQAGGTLRLSCAATGSIIQSYAMGWYRQAPGKESELVAAITARGTSTYYADSVKGRFTISRDNAKNTVYLQMNSLKPEETAVYYCTTDRSRSPGDVECQSDIKRDYWGQGTQVTVSS	low polyreactivity
QVHLVESGGGLFQAGGSLRISCAASGSIFRFNVMGWYRQAPGKERELVAAITRGDSTNYADSVKGRFTISRDNAKNTVYLQMNSLKPEVTAVYYCAAGFYYYLRDHDYWGQGTQVTVSS	low polyreactivity
QVHLVESGGGLFQAGGSLRLRCAASGRIFRYNTMGWYRQAPGKERELVAAINSSGGRTYYADSVKGRFTISRDNAKNTVYLQMNSLKPDDTAVYYCAAVIYVLSGPGYDYWGQGTQVTVSE	high polyreactivity
QVHLVESGGGLFQAGGSLSISSASSGRTFYWYPMGWYRQAPGKERELVAAITGMGTRTYYADSVKGRFTISRDNAKNTDYLQMNSLKPEDTAVYYCNTRYYGGFDSWGQGTQVTVSS	high polyreactivity
QVHLVESGGGLLLAGGSLRLTCAASGSTFYSYDKGWYRQAPGKERELVAAISWNGGSTYYEDSVKGRFTISRDNAKNTVYLPMNSLKPEDTAVYYCAALRYVHGYDYWGQGTQVSVSS	high polyreactivity
